From publication PMC2786245 (Biochemistry, 2009)

Biological target: the molecule itself
Experiment: native gel or EMSA

B1: PII Δ47−53 (deletion of the apex of the T-loop) (natural protein, Escherichia coli, UniProt P0A9Z1 1-112, looked up)
chain: MKKIDAIIKPFKLDDVREALAEVGITGMTVTEVKGFGRQKGHTELYDFLPKVKIEIVVPDDIVDTCVDTIIRTAQTGKIGDGKIFVFDVARVIRIRTGEEDDAAI
- binding result: binds
